Source: article PMC2829087

Target: Myc-GPI-TSHR-ecd (TSH receptor ectodomain, residues 1-412, linked to a GPI anchor, Myc-tagged) (human) (UniProt P16473)
Assay: FRET or BRET; sensitized emission FRET on transfected HEK 293 cells fixed with 4% paraformaldehyde; anti-HA FITC (donor) and anti-Myc Cy3 (acceptor), or GFP (donor) and anti-Myc Cy3 (acceptor) for full-length receptors; pFRET software

Work on “HA-GPI-TSHR-ecd (TSH receptor ectodomain, residues 1-412, linked to a GPI anchor, HA-tagged) (from UniProt P16473 21-412) (domain or fragment)” yielded an FRET efficiency of 8 to 10%.
